In paper PMC3281069:

Biological target: E2 wild type, E2 subunit (acyltransferase component) of the pyruvate dehydrogenase complex of Geobacillus stearothermophilus (Geobacillus stearothermophilus) (UniProt P11961)
Experiment: SEC; E2wt on a Superdex200 gel filtration column in Solubility Buffer 2.2 (1x PBS, 50 mM L-glutamine, 50 mM NaCl, 250 mM L-arginine)

stoichiometry N: 60
Substance: E2 wild type, E2 subunit (acyltransferase component) of the pyruvate dehydrogenase complex of Geobacillus stearothermophilus (from UniProt P11961 1-428) (natural protein)
